In patent US9963506B2, “Human-mouse chimeric anti-CD147 antibody with non-fucosylated glycosylation” (Fourth Military Medical University, priority 2015, dated 2018):

Molecular target: T1, CD147 (Homo sapiens, UniProt P35613)
T1 construct: FFPE tissue sections from a selected panel of human cancer tissue arrays; tissue Chaoying Biotechnology Co., LTD, China; host or cells: human cancer tissue arrays (lung, ovarian, stomach, esophagus, breast, cervical, liver, colon cancer), FFPE
T1 sequence (P35613 22-269 isoform P35613-2 limits assumed): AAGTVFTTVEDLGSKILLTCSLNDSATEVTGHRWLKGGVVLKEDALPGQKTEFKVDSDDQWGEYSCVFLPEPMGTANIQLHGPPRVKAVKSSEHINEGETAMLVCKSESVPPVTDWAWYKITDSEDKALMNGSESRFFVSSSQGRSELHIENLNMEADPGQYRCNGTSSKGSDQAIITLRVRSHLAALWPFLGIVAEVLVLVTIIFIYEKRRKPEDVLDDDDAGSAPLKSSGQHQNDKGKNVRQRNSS
Test: Immunohistochemical detection of CD147 in human cancer tissue arrays (tissue cross reactivity)
Assay type: binding
Method: To test the specificity of Metuzumab (HcHAb18), tissue cross reactivity of Metuzumab was evaluated in FFPE tissue sections from a selected panel of human cancer tissue arrays (Chaoying Biotechnology Co., LTD, China.). Slides were microwaved for 10 min in 10 mM sodium citrated (pH 6.0), cooled for 30 min at 25° C. After incubating for 10 min in 3% H2O2 to block endogenous peroxidase, and blocking for 1 hr in 10% goat serum, slides were incubated overnight in a humidity chamber with biotinylated Metuzumab (30 μg/ml). Binding was visualized with streptavidin-conjugated peroxidase (ZsBio, China) and DAB detection system (ZsBio, China). Sections were analyzed using a bright-field microscope. The staining results were evaluated by 2 experienced pathologist in a blinded manner and classified into four categories: of 0 (no visible staining), 1+ (light brown), 2+ (mid-brown), and 3+ (dark brown), respectively, with the same intensity covering more than 75% of the staining area.

Positive rate (Colon cancer): 82.00% | Sensitivity response rate (Colon cancer): 82.00% | Specificity (Colon cancer): 84.00% | Tumor tissues specifically bound (positive/total) (Colon cancer): 41/50 | Staining level 0 (no visible staining), number of tissues (Colon cancer, number 50): 9 | Staining level 1+ (light brown), number of tissues (Colon cancer, number 50): 8 | Staining level 2+ (mid-brown), number of tissues (Colon cancer, number 50): 26 | Staining level 3+ (dark brown), number of tissues (Colon cancer, number 50): 7 | Positive rate (Esophagus cancer): 93.75% | Sensitivity response rate (Esophagus cancer): 93.75% | Specificity (Esophagus cancer): 81.25% | Tumor tissues specifically bound (positive/total) (Esophagus cancer): 30/32 | Staining level 0 (no visible staining), number of tissues (Esophagus cancer, number 32): 2 | Staining level 1+ (light brown), number of tissues (Esophagus cancer, number 32): 6 | Staining level 2+ (mid-brown), number of tissues (Esophagus cancer, number 32): 13 | Staining level 3+ (dark brown), number of tissues (Esophagus cancer, number 32): 11 | Positive rate (Liver cancer): 85.00% | Sensitivity response rate (Liver cancer): 85.00% | Specificity (Liver cancer): 75.00% | Tumor tissues specifically bound (positive/total) (Liver cancer): 17/20 | Staining level 0 (no visible staining), number of tissues (Liver cancer, number 20): 3 | Staining level 1+ (light brown), number of tissues (Liver cancer, number 20): 11 | Staining level 2+ (mid-brown), number of tissues (Liver cancer, number 20): 6 | Positive rate (Lung cancer): 88.24% | Sensitivity response rate (Lung cancer): 88.24% | Specificity (Lung cancer): 91.67% | Tumor tissues specifically bound (positive/total) (Lung cancer): 60/68 | Staining level 0 (no visible staining), number of tissues (Lung cancer, number 68): 8 | Staining level 1+ (light brown), number of tissues (Lung cancer, number 68): 5 | Staining level 2+ (mid-brown), number of tissues (Lung cancer, number 68): 23 | Staining level 3+ (dark brown), number of tissues (Lung cancer, number 68): 32 | Positive rate (Mammary cancer): 90.00% | Sensitivity response rate (Mammary cancer): 90.00% | Specificity (Mammary cancer): 77.50% | Staining level 0 (no visible staining), number of tissues (Mammary cancer, number 40): 4 | Staining level 1+ (light brown), number of tissues (Mammary cancer, number 40): 6 | Staining level 2+ (mid-brown), number of tissues (Mammary cancer, number 40): 11 | Staining level 3+ (dark brown), number of tissues (Mammary cancer, number 40): 19 | Positive rate (Mammary tissue): 22.50% | Staining level 0 (no visible staining), number of tissues (Mammary tissue, number 40): 31 | Staining level 1+ (light brown), number of tissues (Mammary tissue, number 40): 5 | Staining level 2+ (mid-brown), number of tissues (Mammary tissue, number 40): 2 | Staining level 3+ (dark brown), number of tissues (Mammary tissue, number 40): 2 | Positive rate (Normal cervix uteri): 0% | Staining level 0 (no visible staining), number of tissues (Normal cervix uteri, number 4): 4 | Staining level 1+ (light brown), number of tissues (Normal cervix uteri, number 4): 0 | Staining level 2+ (mid-brown), number of tissues (Normal cervix uteri, number 4): 0 | Staining level 3+ (dark brown), number of tissues (Normal cervix uteri, number 4): 0 | Positive rate (Normal colon): 16.00% | Staining level 0 (no visible staining), number of tissues (Normal colon, number 50): 42 | Staining level 1+ (light brown), number of tissues (Normal colon, number 50): 5 | Staining level 2+ (mid-brown), number of tissues (Normal colon, number 50): 2 | Staining level 3+ (dark brown), number of tissues (Normal colon, number 50): 1 | Positive rate (Normal esophagus): 18.75% | Staining level 0 (no visible staining), number of tissues (Normal esophagus, number 16): 13 | Staining level 1+ (light brown), number of tissues (Normal esophagus, number 16): 3 | Staining level 2+ (mid-brown), number of tissues (Normal esophagus, number 16): 0 | Staining level 3+ (dark brown), number of tissues (Normal esophagus, number 16): 0 | Positive rate (Normal liver): 25.00% | Staining level 0 (no visible staining), number of tissues (Normal liver, number 4): 3 | Staining level 1+ (light brown), number of tissues (Normal liver, number 4): 0 | Staining level 2+ (mid-brown), number of tissues (Normal liver, number 4): 1 | Staining level 3+ (dark brown), number of tissues (Normal liver, number 4): 0 | Positive rate (Normal lung): 8.33% | Staining level 0 (no visible staining), number of tissues (Normal lung, number 12): 10 | Staining level 1+ (light brown), number of tissues (Normal lung, number 12): 2 | Staining level 2+ (mid-brown), number of tissues (Normal lung, number 12): 0 | Staining level 3+ (dark brown), number of tissues (Normal lung, number 12): 0 | Positive rate (Normal ovary): 0% | Staining level 0 (no visible staining), number of tissues (Normal ovary, number 12): 12 | Staining level 1+ (light brown), number of tissues (Normal ovary, number 12): 0 | Staining level 2+ (mid-brown), number of tissues (Normal ovary, number 12): 0 | Staining level 3+ (dark brown), number of tissues (Normal ovary, number 12): 0 | Positive rate (Ovary cancer): 75% | Sensitivity response rate (Ovary cancer): 75.00% | Specificity (Ovary cancer): 100% | Staining level 0 (no visible staining), number of tissues (Ovary cancer, number 12): 3 | Staining level 1+ (light brown), number of tissues (Ovary cancer, number 12): 2 | Staining level 2+ (mid-brown), number of tissues (Ovary cancer, number 12): 3 | Staining level 3+ (dark brown), number of tissues (Ovary cancer, number 12): 4 | Tumor tissues specifically bound (positive/total) (breast cancer): 36/40 | Positive rate (cervical cancer): 85.00% | Sensitivity response rate (cervical cancer): 85.00% | Specificity (cervical cancer): 100% | Tumor tissues specifically bound (positive/total) (cervical cancer): 17/20 | Staining level 0 (no visible staining), number of tissues (cervical cancer, number 20): 3 | Staining level 1+ (light brown), number of tissues (cervical cancer, number 20): 2 | Staining level 2+ (mid-brown), number of tissues (cervical cancer, number 20): 5 | Staining level 3+ (dark brown), number of tissues (cervical cancer, number 20): 10 | Positive rate (gastric cancer): 78.26% | Sensitivity response rate (gastric cancer): 78.26% | Specificity (gastric cancer): 80.95% | Staining level 0 (no visible staining), number of tissues (gastric cancer, number 23): 5 | Staining level 1+ (light brown), number of tissues (gastric cancer, number 23): 1 | Staining level 2+ (mid-brown), number of tissues (gastric cancer, number 23): 7 | Staining level 3+ (dark brown), number of tissues (gastric cancer, number 23): 10 | Positive rate (normal stomach): 19.05% | Staining level 0 (no visible staining), number of tissues (normal stomach, number 21): 17 | Staining level 1+ (light brown), number of tissues (normal stomach, number 21): 3 | Staining level 2+ (mid-brown), number of tissues (normal stomach, number 21): 1 | Staining level 3+ (dark brown), number of tissues (normal stomach, number 21): 0 | Tumor tissues specifically bound (positive/total) (ovarian cancer): 9/12 | Tumor tissues specifically bound (positive/total) (stomach cancer): 18/23
Substance: Metuzumab: human-mouse chimeric anti-CD147 IgG1, heavy chain SEQ ID NO: 4, light chain SEQ ID NO: 3, Mannose-5 glycoform lacking fucose and xylose
